In IntAct's records for PubMed 24449766:

B1: E3 ubiquitin-protein ligase MARCHF6 (Homo sapiens), O60337 (parent)
chain: MDTAEEDICRVCRSEGTPEKPLYHPCVCTGSIKFIHQECLVQWLKHSRKEYCELCKHRFAFTPIYSPDMPSRLPIQDIFAGLVTSIGTAIRYWFHYTLVAFAWLGVVPLTACRIYKCLFTGSVSSLLTLPLDMLSTENLLADCLQGCFVVTCTLCAFISLVWLREQIVHGGAPIWLEHAAPPFNAAGHHQNEAPAGGNGAENVAADQPANPPAENAVVGENPDAQDDQAEEEEEDNEEEDDAGVEDAADANNGAQDDMNWNALEWDRAAEELTWERMLGLDGSLVFLEHVFWVVSLNTLFILVFAFCPYHIGHFSLVGLGFEEHVQASHFEGLITTIVGYILLAITLIICHGLATLVKFHRSRRLLGVCYIVVKVSLLVVVEIGVFPLICGWWLDICSLEMFDATLKDRELSFQSAPGTTMFLHWLVGMVYVFYFASFILLLREVLRPGVLWFLRNLNDPDFNPVQEMIHLPIYRHLRRFILSVIVFGSIVLLMLWLPIRIIKSVLPNFLPYNVMLYSDAPVSELSLELLLLQVVLPALLEQGHTRQWLKGLVRAWTVTAGYLLDLHSYLLGDQEENENSANQQVNNNQHARNNNAIPVVGEGLHAAHQAILQQGGPVGFQPYRRPLNFPLRIFLLIVFMCITLLIASLICLTLPVFAGRWLMSFWTGTAKIHELYTAACGLYVCWLTIRAVTVMVAWMPQGRRVIFQKVKEWSLMIMKTLIVAVLLAGVVPLLLGLLFELVIVAPLRVPLDQTPLFYPWQDWALGVLHAKIIAAITLMGPQWWLKTVIEQVYANGIRNIDLHYIVRKLAAPVISVLLLSLCVPYVIASGVVPLLGVTAEMQNLVHRRIYPFLLMVVVLMAILSFQVRQFKRLYEHIKNDKYLVGQRLVNYERKSGKQGSSPPPPQSSQE

Variants of: B1
Details: with erg1_human SQLE

| Variant | effect of a mutation on the interaction |
| --- | --- |
| C9A | increasing interaction |
